# Test results as given in patent publication US20230002480A1.
# Legend:
# Experiment in all cases: cell-based or functional assay
# [1] = target: HIV-1 Env of pseudovirus 0260.v5.c36 (HIV-1)
# [2] = target: HIV-1 Env of pseudovirus 1054_07_TC4_1499 (HIV-1)
# [3] = target: HIV-1 Env of pseudovirus 249M B10 (HIV-1)
# [4] = target: HIV-1 Env of pseudovirus 3301.v1.c24 (HIV-1)
# [5] = target: HIV-1 Env of pseudovirus 6041.v3.c23 (HIV-1)
# [6] = target: HIV-1 Env of pseudovirus 62357_14_D3_4589 (HIV-1)
# [7] = target: HIV-1 Env of pseudovirus 6244_13_B5_4576 (HIV-1)
# [8] = target: HIV-1 Env of pseudovirus 6535.3 (HIV-1)
# [9] = target: HIV-1 Env of pseudovirus 6540.v4.c1 (HIV-1)
# [10] = target: HIV-1 Env of pseudovirus 89-F1_2_25 (HIV-1)
# [11] = target: HIV-1 Env of pseudovirus AC10.0.29 (HIV-1)
# [12] = target: HIV-1 Env of pseudovirus BF1266.431a (HIV-1)
# [13] = target: HIV-1 Env of pseudovirus BJOX015000.11.5 (HIV-1)
# [14] = target: HIV-1 Env of pseudovirus BJOX025000.01.1 (HIV-1)
# [15] = target: HIV-1 Env of pseudovirus C4118.c09 (HIV-1)
# [16] = target: HIV-1 Env of pseudovirus CAP210.2.00.E8 (HIV-1)
# [17] = target: HIV-1 Env of pseudovirus CAP45.2.00.G3 (HIV-1)
# [18] = target: HIV-1 Env of pseudovirus CNE17 (HIV-1)
# [19] = target: HIV-1 Env of pseudovirus CNE19 (HIV-1)
# [20] = target: HIV-1 Env of pseudovirus CNE20 (HIV-1)
# [21] = target: HIV-1 Env of pseudovirus CNE30 (HIV-1)
# [22] = target: HIV-1 Env of pseudovirus CNE52 (HIV-1)
# [23] = target: HIV-1 Env of pseudovirus CNE53 (HIV-1)
# [24] = target: HIV-1 Env of pseudovirus CNE58 (HIV-1)
# [25] = target: HIV-1 Env of pseudovirus CNE8 (HIV-1)
# [26] = target: HIV-1 Env of pseudovirus Ce1086_B2 (HIV-1)
# [27] = target: HIV-1 Env of pseudovirus Du172.17 (HIV-1)
# [28] = target: HIV-1 Env of pseudovirus HIV-16845-2.22 (HIV-1)
# [29] = target: HIV-1 Env of pseudovirus P0402_c2_11 (HIV-1)
# [30] = target: HIV-1 Env of pseudovirus Q461.e2 (HIV-1)
# [31] = target: HIV-1 Env of pseudovirus Q842.d12 (HIV-1)
# [32] = target: HIV-1 Env of pseudovirus T255-34 (HIV-1)
# [33] = target: HIV-1 Env of pseudovirus TRO.11 (HIV-1)
# [34] = target: HIV-1 Env of pseudovirus WEAU_d15_410_787 (HIV-1)
# [35] = target: HIV-1 Env of pseudovirus ZM135M.PL10a (HIV-1)
# [36] = target: HIV-1 Env of pseudovirus ZM247v1(Rev-) (HIV-1)
# [37] = target: HIV-1 Env of pseudovirus 6480.v4.c25 (HIV-1)
substance,measurement,setting,value
PGT151 (antibody),IC50,[1],0.427 µg/mL
same,IC80,[1],> 50 µg/mL
same,IC50,[2],0.008 µg/mL
same,IC80,[2],0.032 µg/mL
same,IC50,[3],0.007 µg/mL
same,IC80,[3],0.023 µg/mL
same,"IC50, titer in TZM.bl cells",[4],0.002 µg/mL
same,"IC80, titer in TZM.bl cells",[4],0.019 µg/mL
same,"IC50, titer in TZM.bl cells",[5],0.004 µg/mL
same,"IC80, titer in TZM.bl cells",[5],0.024 µg/mL
same,IC50,[6],0.004 µg/mL
same,IC80,[6],0.023 µg/mL
same,IC50,[7],> 50 µg/mL
same,IC80,[7],> 50 µg/mL
same,IC50,[8],< 0.001 µg/mL
same,IC80,[8],0.012 µg/mL
same,"IC50, titer in TZM.bl cells",[9],0.006 µg/mL
same,"IC80, titer in TZM.bl cells",[9],0.03 µg/mL
same,"IC50, titer in TZM.bl cells",[10],22.9 µg/mL
same,"IC80, titer in TZM.bl cells",[10],> 50 µg/mL
same,IC50,[11],0.007 µg/mL
same,IC80,[11],0.023 µg/mL
same,IC50,[12],> 50 µg/mL
same,IC80,[12],> 50 µg/mL
same,"IC50, titer in TZM.bl cells",[13],> 50 µg/mL
same,"IC80, titer in TZM.bl cells",[13],> 50 µg/mL
same,"IC50, titer in TZM.bl cells",[14],> 50 µg/mL
same,"IC80, titer in TZM.bl cells",[14],> 50 µg/mL
same,"IC50, titer in TZM.bl cells",[15],> 50 µg/mL
same,"IC80, titer in TZM.bl cells",[15],> 50 µg/mL
same,IC50,[16],0.01 µg/mL
same,IC80,[16],0.208 µg/mL
same,IC50,[17],0.007 µg/mL
same,IC80,[17],> 50 µg/mL
same,IC50,[18],0.093 µg/mL
same,IC80,[18],> 50 µg/mL
same,IC50,[19],0.014 µg/mL
same,IC80,[19],> 50 µg/mL
same,IC50,[20],> 50 µg/mL
same,IC80,[20],> 50 µg/mL
same,IC50,[21],> 50 µg/mL
same,IC80,[21],> 50 µg/mL
same,IC50,[22],0.004 µg/mL
same,IC80,[22],0.017 µg/mL
same,IC50,[23],> 50 µg/mL
same,IC80,[23],> 50 µg/mL
same,IC50,[24],0.004 µg/mL
same,IC80,[24],0.016 µg/mL
same,"IC50, titer in TZM.bl cells",[25],> 50 µg/mL
same,"IC80, titer in TZM.bl cells",[25],> 50 µg/mL
same,IC50,[26],2.65 µg/mL
same,IC80,[26],> 50 µg/mL
same,IC50,[27],0.003 µg/mL
same,IC80,[27],0.013 µg/mL
same,IC50,[28],> 50 µg/mL
same,IC80,[28],> 50 µg/mL
same,"IC50, titer in TZM.bl cells",[29],< 0.001 µg/mL
same,"IC80, titer in TZM.bl cells",[29],0.004 µg/mL
same,IC50,[30],12.6 µg/mL
same,IC80,[30],> 50 µg/mL
same,IC50,[31],0.001 µg/mL
same,IC80,[31],0.014 µg/mL
same,"IC50, titer in TZM.bl cells",[32],0.002 µg/mL
same,"IC80, titer in TZM.bl cells",[32],0.01 µg/mL
same,IC50,[33],> 50 µg/mL
same,IC80,[33],> 50 µg/mL
same,IC50,[34],0.01 µg/mL
same,IC80,[34],> 50 µg/mL
same,IC50,[35],> 50 µg/mL
same,IC80,[35],> 50 µg/mL
same,IC50,[36],0.009 µg/mL
same,IC80,[36],> 50 µg/mL
N49P6 (antibody),IC50,[1],0.485 µg/mL
same,IC80,[1],1.55 µg/mL
same,MPI,[1],100
same,IC50,[2],0.624 µg/mL
same,IC80,[2],2.85 µg/mL
same,MPI,[2],100
same,IC50,[3],0.122 µg/mL
same,IC80,[3],0.549 µg/mL
same,MPI,[3],100
same,IC50,[4],0.054 µg/mL
same,IC80,[4],0.149 µg/mL
same,MPI,[4],100
same,IC50,[5],5.53 µg/mL
same,IC80,[5],43.2 µg/mL
same,MPI,[5],88
same,IC50,[6],0.098 µg/mL
same,IC80,[6],0.296 µg/mL
same,MPI,[6],100
same,IC50,[7],0.095 µg/mL
same,IC80,[7],0.328 µg/mL
same,MPI,[7],100
same,IC50,[37],0.089 µg/mL
same,IC80,[37],0.427 µg/mL
same,MPI,[37],100
same,IC50,[8],0.417 µg/mL
same,IC80,[8],1.34 µg/mL
same,MPI,[8],100
same,IC50,[9],14 µg/mL
same,IC80,[9],47.5 µg/mL
same,MPI,[9],81
same,IC50,[10],33.6 µg/mL
same,IC80,[10],> 50 µg/mL
same,MPI,[10],61
same,IC50,[11],32.3 µg/mL
same,IC80,[11],> 50 µg/mL
same,MPI,[11],67
same,IC50,[12],0.083 µg/mL
same,IC80,[12],0.283 µg/mL
same,MPI,[12],100
same,IC50,[13],0.07 µg/mL
same,IC80,[13],0.312 µg/mL
same,MPI,[13],100
same,IC50,[14],14.9 µg/mL
same,IC80,[14],> 50 µg/mL
same,MPI,[14],78
same,IC50,[15],0.092 µg/mL
same,IC80,[15],0.243 µg/mL
same,MPI,[15],100
same,IC50,[16],22.6 µg/mL
same,IC80,[16],> 50 µg/mL
same,MPI,[16],73
same,IC50,[17],21.7 µg/mL
same,IC80,[17],> 50 µg/mL
same,MPI,[17],75
same,IC50,[18],0.34 µg/mL
same,IC80,[18],2.1 µg/mL
same,MPI,[18],100
same,IC50,[19],0.044 µg/mL
same,IC80,[19],0.156 µg/mL
same,MPI,[19],100
same,IC50,[20],2.74 µg/mL
same,IC80,[20],15.6 µg/mL
same,MPI,[20],95
same,IC50,[21],0.457 µg/mL
same,IC80,[21],1.54 µg/mL
same,MPI,[21],100
same,IC50,[22],0.028 µg/mL
same,IC80,[22],0.095 µg/mL
same,MPI,[22],100
same,IC50,[23],0.249 µg/mL
same,IC80,[23],0.871 µg/mL
same,MPI,[23],99
same,IC50,[24],0.036 µg/mL
same,IC80,[24],0.1 µg/mL
same,MPI,[24],100
same,IC50,[25],0.072 µg/mL
same,IC80,[25],0.245 µg/mL
same,MPI,[25],100
same,IC50,[26],0.581 µg/mL
same,IC80,[26],4.09 µg/mL
same,MPI,[26],98
same,IC50,[27],20.8 µg/mL
same,IC80,[27],> 50 µg/mL
same,MPI,[27],74
same,IC50,[28],0.692 µg/mL
same,IC80,[28],3.75 µg/mL
same,MPI,[28],100
same,IC50,[29],3.54 µg/mL
same,IC80,[29],19 µg/mL
same,MPI,[29],99
same,IC50,[30],0.173 µg/mL
same,IC80,[30],0.622 µg/mL
same,MPI,[30],100
same,IC50,[31],0.034 µg/mL
same,IC80,[31],0.091 µg/mL
same,MPI,[31],100
same,IC50,[32],0.076 µg/mL
same,IC80,[32],0.392 µg/mL
same,MPI,[32],100
same,IC50,[33],0.061 µg/mL
same,IC80,[33],0.19 µg/mL
same,MPI,[33],100
same,IC50,[34],0.07 µg/mL
same,IC80,[34],0.188 µg/mL
same,MPI,[34],100
same,IC50,[35],0.494 µg/mL
same,IC80,[35],1.77 µg/mL
same,MPI,[35],99
same,IC50,[36],0.063 µg/mL
same,IC80,[36],0.17 µg/mL
same,MPI,[36],100
